Test results from the RNAGym collection of RNA variant scans (doi:10.1073/pnas.2313332121).
Fewer inactive variants are shown than the library holds.

B1: TPR 5TU (parent)
chain: GGAUCUUCUCGAUCUAACAAAAAAGACAAAUCUGCCACAAAGCUUGAGAGCAUCUUCGGAUGCAGAGGCGGCAGCCUUCGGUGGCGCGAUAGCGCCAACGUUCUCAACUAUGACACGCAAAACGCGUGCUCCGUUGAAUGGAGUUUAUCAUG

Variants of: B1
Assay: polymerase ribozyme fitness, log enrichment relative to wild type (log ratio); higher = more active; in vitro selection for triplet polymerase activity
Method in brief: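 Frozen incubation at −7 °C formed the core of a single, triplicate in vitro selection round applied to PCR-built, transcribed mutant libraries of each subunit of a heterodimeric triplet polymerase ribozyme. Extended constructs were gel-excised, captured with streptavidin beads and amplified by RT-PCR, and input and output libraries were Illumina-sequenced with a filter of ≥10 input reads and ≥1 read per output. Fitness is the logarithm of genotype enrichment relative to wild-type enrichment, with inverse-variance-weighted replicate averaging, and the logarithm is base 2.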
With A22C C69A G80C C85U A89U A142G the “polymerase ribozyme fitness (log ratio)” value was at most -4.2. With A21G G84U C118U the “polymerase ribozyme fitness (log ratio)” value was -1.39. With A21U G141C the “polymerase ribozyme fitness (log ratio)” value was 0.187. With A21U G141U the “polymerase ribozyme fitness (log ratio)” value was 1.9. In the case of A22G C85G, the “polymerase ribozyme fitness (log ratio)” value is reported as -2.32. In the case of A22G C85U, the “polymerase ribozyme fitness (log ratio)” value is reported as -0.836. In the case of A22G G86C, the “polymerase ribozyme fitness (log ratio)” value is reported as -1.67. For A22C A28G C36A U55A C87A C118G, the “polymerase ribozyme fitness (log ratio)” value was at most -4.2. For A21U C57A A107C A122G C123U U135C U145A, the “polymerase ribozyme fitness (log ratio)” value was at most -4.2. For A22G G58C A119U A122U, the “polymerase ribozyme fitness (log ratio)” value was 0.574. For A21U U55A C85U U148A, the “polymerase ribozyme fitness (log ratio)” value was -4.07. With A21U A26C G141A the “polymerase ribozyme fitness (log ratio)” value was -3.34. For A21U U61G G80A U101A, the “polymerase ribozyme fitness (log ratio)” value was -2.86. For A22C A41U U53C C75U, the “polymerase ribozyme fitness (log ratio)” value was -2.58. With A21U C38U C95U A106U U144C the “polymerase ribozyme fitness (log ratio)” value was -2.96. With A22C C57A A106G G141C the “polymerase ribozyme fitness (log ratio)” value was -0.358. In the case of A22C C75G G88U A91G A110G C116A G136A, the “polymerase ribozyme fitness (log ratio)” value is reported as at most -4.2. In the case of A21G G143A, the “polymerase ribozyme fitness (log ratio)” value is reported as -0.569. For A22G C54U G58A G59A C103G, the “polymerase ribozyme fitness (log ratio)” value was -1.91. For A21U G62C A66C G83U A91U G152A, the “polymerase ribozyme fitness (log ratio)” value was at most -4.2. In the case of A21U A26G U33A A142C G143U U146G C149G, the “polymerase ribozyme fitness (log ratio)” value is reported as at most -4.2. With A22C A24G A52G G68U the “polymerase ribozyme fitness (log ratio)” value was at most -4.2. With A21G C87U G140U the “polymerase ribozyme fitness (log ratio)” value was -3.6. For A22C A24G C51G A52C U56A A121C, the “polymerase ribozyme fitness (log ratio)” value was at most -4.2. In the case of A22G G59A A60C C85A G94A C105U G126A, the “polymerase ribozyme fitness (log ratio)” value is reported as -4.1. In the case of A22C A37C, the “polymerase ribozyme fitness (log ratio)” value is reported as -0.165. With A21U C35A G50C A91G U134G the “polymerase ribozyme fitness (log ratio)” value was at most -4.2. In the case of A21U U77G U78C G84A, the “polymerase ribozyme fitness (log ratio)” value is reported as at most -4.2. For A21U C54A C96U, the “polymerase ribozyme fitness (log ratio)” value was -2.01. For A21U C32A C51U A73G U134G, the “polymerase ribozyme fitness (log ratio)” value was at most -4.2. With A21G G81U C95A C96A A98U U145A the “polymerase ribozyme fitness (log ratio)” value was -1.34. With A22G A40G A41C C57U A107U A120U the “polymerase ribozyme fitness (log ratio)” value was at most -4.2. In the case of A21U A40C, the “polymerase ribozyme fitness (log ratio)” value is reported as 1.56. For A22G C96U C114U A115U, the “polymerase ribozyme fitness (log ratio)” value was at most -4.2. With A21U A28C U53A G88C the “polymerase ribozyme fitness (log ratio)” value was at most -4.2. With A22C A23G G62A A91G A98U C114A U146A the “polymerase ribozyme fitness (log ratio)” value was at most -4.2. With A22C A29U U33C A47C U53G C95U C105A C118U the “polymerase ribozyme fitness (log ratio)” value was at most -4.2. With A21U G25C A29U U33A A37U A66C G70C G88U G124U the “polymerase ribozyme fitness (log ratio)” value was at most -4.2. With A21U A113C U127G C132U the “polymerase ribozyme fitness (log ratio)” value was at most -4.2. For A22C U55G A60G U101A C118G, the “polymerase ribozyme fitness (log ratio)” value was -0.937. In the case of A22C G25A C51U A66C C85G C93U C116A, the “polymerase ribozyme fitness (log ratio)” value is reported as at most -4.2. With A21G U33G A37U C85U C95U G141C the “polymerase ribozyme fitness (log ratio)” value was at most -4.2. For A21U U45G U55A A91U C125U C131G, the “polymerase ribozyme fitness (log ratio)” value was at most -4.2. With A21U U56A G81U C85G A107U G141U U144G the “polymerase ribozyme fitness (log ratio)” value was at most -4.2. With A21U C99U C116U C125U the “polymerase ribozyme fitness (log ratio)” value was -1.64. For A21U C38A G81A, the “polymerase ribozyme fitness (log ratio)” value was 0.0427. With A22C G59C G83A A89C the “polymerase ribozyme fitness (log ratio)” value was -1.16. For A22C A28U A121U, the “polymerase ribozyme fitness (log ratio)” value was at most -4.2. For A21U C54U U146A, the “polymerase ribozyme fitness (log ratio)” value was -0.081. For A21U G46U U55A C85G A106G C116A, the “polymerase ribozyme fitness (log ratio)” value was -1.91. In the case of A22G C72A G86C C87A A110U U127C C132A U146G, the “polymerase ribozyme fitness (log ratio)” value is reported as at most -4.2. For A22C G50A U55G U77C G94A, the “polymerase ribozyme fitness (log ratio)” value was -4.04. With A21G U56C C93U the “polymerase ribozyme fitness (log ratio)” value was -0.835. In the case of A22G C36A G48A C95G G140C, the “polymerase ribozyme fitness (log ratio)” value is reported as at most -4.2. For A21G C76G A97U, the “polymerase ribozyme fitness (log ratio)” value was at most -4.2. For A21U C95A U146G, the “polymerase ribozyme fitness (log ratio)” value was -0.389. With A22G C108U the “polymerase ribozyme fitness (log ratio)” value was -4.08. In the case of A21U A24C U56A C96U A138U, the “polymerase ribozyme fitness (log ratio)” value is reported as at most -4.2. With A22G A41C G50A C95U U101G the “polymerase ribozyme fitness (log ratio)” value was -1.78. In the case of A21U G42C U44A U53A U55A C87U, the “polymerase ribozyme fitness (log ratio)” value is reported as at most -4.2. In the case of A21G G50C C93U C118U A138U U145A, the “polymerase ribozyme fitness (log ratio)” value is reported as at most -4.2. For A22C G50A C63A C69G A89G U127G G141U A142U, the “polymerase ribozyme fitness (log ratio)” value was at most -4.2. In the case of A22G A24U U55A C75G C76A C95G G124U G136U, the “polymerase ribozyme fitness (log ratio)” value is reported as at most -4.2. With A21U C69U C87U C96A the “polymerase ribozyme fitness (log ratio)” value was -1.14. In the case of A21U A91G, the “polymerase ribozyme fitness (log ratio)” value is reported as -2.85. For A22G G42C A52C G58A G68U C87G A142C, the “polymerase ribozyme fitness (log ratio)” value was at most -4.2. With A22C A23C C36G C79A C125A G140U the “polymerase ribozyme fitness (log ratio)” value was -3.55. For A22G G83A A91U G100U, the “polymerase ribozyme fitness (log ratio)” value was at most -4.2. For A21U G128A, the “polymerase ribozyme fitness (log ratio)” value was -3.26. In the case of A21U A26U G83A A106G, the “polymerase ribozyme fitness (log ratio)” value is reported as -3.03. For A22G U31C U44A C95G A150G, the “polymerase ribozyme fitness (log ratio)” value was at most -4.2. In the case of A21U C36G U44C C54G G74U A89G A120C U134G, the “polymerase ribozyme fitness (log ratio)” value is reported as at most -4.2. For A22C G141U, the “polymerase ribozyme fitness (log ratio)” value was 1.81. In the case of A21U G48A U82G C95G, the “polymerase ribozyme fitness (log ratio)” value is reported as at most -4.2. In the case of A22G A113C, the “polymerase ribozyme fitness (log ratio)” value is reported as -2.12. With A21U C96U A113U the “polymerase ribozyme fitness (log ratio)” value was -2.6. For A21U C87G, the “polymerase ribozyme fitness (log ratio)” value was at most -4.2. For A21U C87U, the “polymerase ribozyme fitness (log ratio)” value was -0.254. In the case of A22C U61C G80A A119U C125A, the “polymerase ribozyme fitness (log ratio)” value is reported as -2.69. In the case of A21G C114U, the “polymerase ribozyme fitness (log ratio)” value is reported as -1.69. In the case of A21U U56A C96U, the “polymerase ribozyme fitness (log ratio)” value is reported as -0.871. With A22C C69U C93A U144A the “polymerase ribozyme fitness (log ratio)” value was -3.99. For A22G U33G, the “polymerase ribozyme fitness (log ratio)” value was -3.24. In the case of A21U C79G, the “polymerase ribozyme fitness (log ratio)” value is reported as -3.91.
